For experiment [1], the target named is T1, rHuman Notch-1/Fc Chimera, CF (R&D Systems Cat#3647-TK) (human, UniProt P46531 19-526).
T1 construct: Bought Fc chimera; Fc part of the bought chimera not given
The experiment can be described thus: ECL (MSD Multi-Spot) binding, antigen spotted on plate, Fab at 125 nM; blank spot 403.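 Also: blank spot per well as comparator with Hit at signal to blank ratio of 4 or more.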

Experiment [2] has as its target T2, rHuman IGF-1 sR (IGF-1 sR), CF (R&D Systems Cat#391-GR) (human, UniProt P08069 31-932).
T2 construct: Bought soluble receptor; also called insulin-like growth factor-1 soluble receptor; IGF-R1
The experiment is described as above.

Experiment [3] has as its target T3, rHuman Erythropoietin R/Fc Chimera, CF (R&D Systems Cat#963-ER) (human, UniProt P19235 25-250).
T3 construct: Bought Fc chimera; also called EPO R/Fc; Epo R; Fc part of the bought chimera not given
T3 sequence: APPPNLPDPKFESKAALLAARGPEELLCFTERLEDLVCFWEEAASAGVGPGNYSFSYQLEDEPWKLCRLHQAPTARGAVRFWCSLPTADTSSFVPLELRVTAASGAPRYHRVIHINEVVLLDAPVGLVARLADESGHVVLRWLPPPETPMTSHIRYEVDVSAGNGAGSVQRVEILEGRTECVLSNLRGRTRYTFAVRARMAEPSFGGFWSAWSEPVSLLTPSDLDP
The experiment is described as above.

For experiment [4], the target named is T1, rHuman Notch-1/Fc Chimera, CF (R&D …). Put plainly: ECL (MSD Multi-Spot) binding, antigen spotted on plate, Fab at 250 nM; blank spot 590.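 Also: blank spot per well as comparator with Hit at signal to blank ratio of 4 or more.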
Experiment [5] has as its target T2, rHuman IGF-1 sR (IGF-1 sR), CF (R&D …). The experiment is described as above.
The target in experiment [6] is T3, rHuman Erythropoietin R/Fc Chimera, CF …. Described as above.
Experiment [7] has as its target T1, rHuman Notch-1/Fc Chimera, CF (R&D …). Put plainly: ECL (MSD Multi-Spot) binding, antigen spotted on plate, Fab at 500 nM; blank spot 680.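 Also: blank spot per well as comparator with Hit at signal to blank ratio of 4 or more.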
For experiment [8], the target named is T2, rHuman IGF-1 sR (IGF-1 sR), CF (R&D …). Described as above.
For experiment [9], the target named is T3, rHuman Erythropoietin R/Fc Chimera, CF …. The experiment is described as above.
Experiment [10] concerns the target T1, rHuman Notch-1/Fc Chimera, CF (R&D …). The experiment can be described thus: ECL (MSD Multi-Spot) binding, antigen spotted on plate, Fab at 7.8 nM; blank spot 316.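 Also: blank spot per well as comparator with Hit at signal to blank ratio of 4 or more.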
In experiment [11] the target is T2, rHuman IGF-1 sR (IGF-1 sR), CF (R&D …). The experiment is described as above.
Experiment [12] deals with T3, rHuman Erythropoietin R/Fc Chimera, CF …. The experiment is described as above.
Experiment [13] deals with T1, rHuman Notch-1/Fc Chimera, CF (R&D …). Put plainly: ECL (MSD Multi-Spot) binding, antigen spotted on plate, Fab at 15.6 nM; blank spot 294.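 Also: blank spot per well as comparator with Hit at signal to blank ratio of 4 or more.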
In experiment [14] the target is T2, rHuman IGF-1 sR (IGF-1 sR), CF (R&D …). Described as above.
The target in experiment [15] is T3, rHuman Erythropoietin R/Fc Chimera, CF …. The description is as above.
In experiment [16] the target is T1, rHuman Notch-1/Fc Chimera, CF (R&D …). The experiment can be described thus: ECL (MSD Multi-Spot) binding, antigen spotted on plate, Fab at 31.3 nM; blank spot 250.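 Also: blank spot per well as comparator with Hit at signal to blank ratio of 4 or more.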
Experiment [17] addresses T2, rHuman IGF-1 sR (IGF-1 sR), CF (R&D …). Described as above.
The target in experiment [18] is T3, rHuman Erythropoietin R/Fc Chimera, CF …. Described as above.
For experiment [19], the target named is T1, rHuman Notch-1/Fc Chimera, CF (R&D …). The experiment can be described thus: ECL (MSD Multi-Spot) binding, antigen spotted on plate, Fab at 62.5 nM; blank spot 268.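 Also: blank spot per well as comparator with Hit at signal to blank ratio of 4 or more.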
Experiment [20] deals with T2, rHuman IGF-1 sR (IGF-1 sR), CF (R&D …). The description is as above.
In experiment [21] the target is T3, rHuman Erythropoietin R/Fc Chimera, CF …. The description is as above.
Experiment [22] concerns the target T1, rHuman Notch-1/Fc Chimera, CF (R&D …). The experiment can be described thus: ECL (MSD Multi-Spot) binding, antigen spotted on plate, Fab at 1000 nM; blank spot 1133.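 Also: blank spot per well as comparator with Hit at signal to blank ratio of 4 or more.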
The target of experiment [23] is T2, rHuman IGF-1 sR (IGF-1 sR), CF (R&D …). Described as above.
Experiment [24] concerns the target T3, rHuman Erythropoietin R/Fc Chimera, CF …. Described as above.
The target of experiment [25] is T4, rHuman ErbB2/Fc Chimera, CF (R&D Systems Cat#1129-ER) (human, UniProt P04626 23-652).
T4 construct: Bought protein; also called HER2/neu; human epidermal growth factor 2 receptor; Fc part of the bought chimera not given
Put plainly: MSD ECL multi-spot assay, antigen spotted on plate, Fab 0.36 uM; blank spot 1948.

The target of experiment [26] is T5, rHuman HGF R/c-MET/Fc Chimera, CF (R&D Systems Cat#358-MT/CF) (human, UniProt P08581 25-932).
T5 construct: Bought protein; also called HGF R/Fc; hepatocyte growth factor receptor; Fc part of the bought chimera not given
The description is as above.

Experiment [27] concerns the target T6, rHuman CD44/Fc Chimera, CF (R&D Systems Cat#3660-CD) (human, UniProt P16070 21-220).
T6 construct: Bought protein; Fc part of the bought chimera not given
The description is as above.

Experiment [28] deals with T7, rHuman IGF-1 sR (IGF-1 sR), CF (R&D Systems Cat#391-GR) (human, UniProt P08069 31-932).
T7 construct: Bought soluble receptor; also called insulin-like growth factor-1 soluble receptor; IGF-R1
The experiment is described as above.

In experiment [29] the target is T8, rHuman P-Cadherin/Fc Chimera, CF (R&D Systems Cat#861-PC) (human, UniProt P22223 108-654).
T8 construct: Bought protein; also called CDH3; Fc part of the bought chimera not given
The experiment is described as above.

The target in experiment [30] is T9, rHuman Erythropoietin R/Fc Chimera, CF (R&D Systems Cat#963-ER) (human, UniProt P19235 25-250).
T9 construct: Bought protein; also called EPOR; EPO R/Fc; Fc part of the bought chimera not given
T9 sequence: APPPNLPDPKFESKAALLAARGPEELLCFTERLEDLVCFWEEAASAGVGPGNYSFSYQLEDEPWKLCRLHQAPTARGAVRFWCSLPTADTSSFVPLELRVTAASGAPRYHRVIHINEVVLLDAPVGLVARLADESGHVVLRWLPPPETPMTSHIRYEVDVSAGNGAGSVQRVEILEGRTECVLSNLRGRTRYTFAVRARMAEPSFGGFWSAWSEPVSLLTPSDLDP
The experiment is described as above.

For experiment [31], the target named is T10, Recombinant Human DLL4 (delta-like protein 4) (human, UniProt Q9NR61 27-524).
T10 construct: Bought (R&D Systems Cat#1506-D4/CF); also called rHuman DLL4
Put plainly: SPR, Fab on recombinant human DLL4. A general note: In SPR one partner is held on a chip, and binding of the other changes the refractive index at the surface.

In experiment [32] the target is T10, Recombinant Human DLL4 (delta-like …). The experiment can be described thus: SPR, Fab on recombinant human DLL4; standard deviation in parentheses.

B1: Fab VH1-46_IGHD6-13*01_IGHJ4*01 & B3_IGKJ1*01 (Fab, V domains shown)
VH: QVQLVQSGAEVKKPGASVKVSCKASGYTFTSYYMHWVRQAPGQGLEWMGIINPSGGSTSYAQKFQGRVTMTRDTSTSTVYMELSSLRSEDTAVYYCAREGYSSSWYDYFDYWGQGTLVTVSS
VL: not shown
notes: Tested as a Fab made in E. coli: VH joined to the CH1 of Plasmid A (with Flag and His tags), VL joined to the kappa constant region of Plasmid C; also called VH1-46_IGHD6-13*01_IGH41*01 & B3_IGKJ1*01
With B1, the ECL signal worked out at 802 in [1]; 654 in experiment [2]; 9240 in [3]; 1240 in experiment [4]; 993 in experiment [5]; 8540 in [6]. The ECL signal in [7] amounted to 1980; in experiment [8] it was 1330; in [9] it was 10300; in experiment [10] it was 486; in [11] it was 353; in [12], 6760. In addition, the ECL signal in experiment [13] came out at 418; in experiment [14], 349; in [15] it was 8360; in [16], 563; in experiment [17] it was 385; in experiment [18], 7880. Besides, the ECL signal is 536 in [19]; 491 in experiment [20]; 7750 in experiment [21]; 2270 in experiment [22]; 1670 in experiment [23]; 8590 in experiment [24].

B2: Fab VH4-28_IGHD7-27*01_IGHJ1*01 & L2_IGKJ1*01 (Fab, V domains shown)
VH: QVQLQESGPGLVKPSDTLSLTCAVSGYSISSSNWWGWIRQPPGKGLEWIGYIYYSGSTYYNPSLKSRVTMSVDTSKNQFSLKLSSVTAVDTAVYYCARTNWGAEYFQHWGQGTLVTVSS
VL: not shown
In the case of B2, the ECL signal in experiment [25] was determined as 2030; in experiment [26] it was 2030; in [27], 2480; in experiment [28] it was 1700; in experiment [29], 2740; in experiment [30], 19400.

B3: Fab VH5-51_IGHD5-18*01>3_IGHJ4*01_G100K_G104T & V3-4_IGLJ1*01 (Fab, V domains shown)
VH: EVQLVQSGAEVKKPGESLKISCKGSGYSFTSYWIGWVRQMPGKGLEWMGIIYPGDSDTRYSPSFQGQVTISADKSISTAYLQWSSLKASDTAMYYCARRKYSYTYDYFDYWGQGTLVTVSS
VL: QTVVTQEPSFSVSPGGTVTLTCGLSSGSVSTSYYPSWYQQTPGQAPRTLIYSTNTRSSGVPDRFSGSILGNKAALTITGAQADDESDYYCVLYMGSGISYVFGTGTKVTVL
notes: Modified anti-DLL4 Fab; lambda Plasmid E)
Broadly, the koff is the rate constant with which the complex falls apart. What is called Kd is the constant that tells how readily two partners part at equilibrium. In general, kon refers to the rate constant with which the complex forms. In the case of B3, in experiment [31], the koff is 0.023 s⁻¹. In experiment [32], the Kd was 355 nM and the kon amounted to 64500 M⁻¹ s⁻¹.

Values taken from patent US20120058906A1 (published 2012).
